Measured values reported in patent US20200317768A1 (published 2020).
Where a chain is given by its changes, count along the chain named.

How the values were obtained:
[1] = biological target: T1, mature myostatin (human (mature form 100% identical in …, UniProt O08689 268-376 (mouse entry))); experiment: ELISA, biotinylated antigen (4 nM) on streptavidin plate, anti-human IgG-HRP
T1 construct: Disulfide-bonded homodimer purified from latent myostatin; Biotinylated in the ELISA; also called human myostatin mature form; active myostatin
T1 sequence: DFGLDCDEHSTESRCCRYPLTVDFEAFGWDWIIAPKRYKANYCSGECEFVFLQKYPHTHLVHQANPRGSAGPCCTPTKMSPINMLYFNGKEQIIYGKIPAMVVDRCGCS
Description: Uncoated ELISA plates (NUNC-IMMUNO plate MAXISORP surface, Nalge Nunc International) were coated with 20 μL of 50 nM streptavidin (GenScript) for 1 hour at room temperature. Plates were then washed with PBST three times and blocked with 50 μL 20% Blocking One (Nacalai Tesque) overnight. On the next day, each well of each plate was incubated with biotinylated mature myostatin, human or mouse biotinylated latent myostatin, or biotinylated recombinant mouse myostatin propeptide-Fc chimera protein (R&D Systems) at 4 nM/well/20 μL for 2 hours. After washing, 20 μL of antibody sample was added to the wells and the plates were left for 1 hour. The plates were washed and 20 μL of anti-human IgG-horseradish peroxidase (HRP) (Abcam) diluted in HEPES-buffered saline was added, and the plates were left for another hour. The plates were then washed again, and then 50 μL ABTS (KPL) was added to each well, and the plates were incubated for 1 hour.

[2] = biological target: T2, Human GDF11 with Flag-tag on N-terminus (human, UniProt O95390 11-407); experiment: ELISA, biotinylated human latent GDF11 (20 nM) on streptavidin plate, anti-human IgG-HRP
T2 construct: Whole entry as named; Biotinylated in the ELISA; also called Flag-hGDF11; human latent GDF11
T2 sequence: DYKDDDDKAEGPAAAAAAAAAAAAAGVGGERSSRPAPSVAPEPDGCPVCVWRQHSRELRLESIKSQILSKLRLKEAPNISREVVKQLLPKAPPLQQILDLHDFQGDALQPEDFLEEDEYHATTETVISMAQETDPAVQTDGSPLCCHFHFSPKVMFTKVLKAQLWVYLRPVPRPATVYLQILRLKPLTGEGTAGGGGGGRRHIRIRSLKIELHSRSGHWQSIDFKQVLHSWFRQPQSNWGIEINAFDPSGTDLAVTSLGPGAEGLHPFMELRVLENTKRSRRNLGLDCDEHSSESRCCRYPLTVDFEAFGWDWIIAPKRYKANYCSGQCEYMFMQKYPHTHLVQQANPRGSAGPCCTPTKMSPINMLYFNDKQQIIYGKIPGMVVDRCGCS
Description: Uncoated ELISA plates (NUNC-IMMUNO plate MAXISORP™ surface, Nalge Nunc International) were coated with 20 μL of 50 nM streptavidin (GenScript) for 2 hour at room temperature. Plates were then washed with PBST three times and blocked with 50 μL 20% Blocking One (Nacalai Tesque) for overnight. On the next day, each well of the plates was incubated with biotinylated human latent myostatin at 2 nM/well/20 μL or biotinylated human latent GDF11 at 20 nM/well/20 μL for 2 hours. After washing, 20 μL of antibody sample was added to the wells and the plates were left for 1 hour. The plates were washed and 20 μL of anti-human IgG-horseradish peroxidase (HRP) (Abcam) diluted in HEPES-buffered saline was added, and the plates were left for another hour. The wells were washed again, and then 50 μL ABTS (KPL) was added to each well, and the plates were incubated for 1 hour.

[3] = biological target: T3, Human latent myostatin (human, UniProt O14793 25-266; O14793 267-375); experiment: SPR (BIACORE T200), antibody captured by ProA/G, latent myostatin as analyte, 37 C, pH7.4, 1:1 fit
T3 construct: Biotinylated in the ELISAs; also called human myostatin latent form
T3 sequence 1: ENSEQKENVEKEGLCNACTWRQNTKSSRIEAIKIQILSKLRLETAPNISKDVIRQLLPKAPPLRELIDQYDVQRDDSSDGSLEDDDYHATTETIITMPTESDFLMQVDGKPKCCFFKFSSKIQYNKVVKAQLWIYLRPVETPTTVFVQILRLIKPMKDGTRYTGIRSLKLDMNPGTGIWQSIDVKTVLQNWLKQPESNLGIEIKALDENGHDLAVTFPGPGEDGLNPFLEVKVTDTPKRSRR
T3 sequence 2: T1 sequence
Description: (§1) The kinetic parameters of anti-latent myostatin antibodies against human, cynomolgus monkey (cyno), and mouse latent myostatin were assessed at 37° C. at pH7.4 using a BIACORE® T200 instrument (GE Healthcare). ProA/G (Pierce) was immobilized onto all flow cells of a CM4 chip using amine coupling kit (GE Healthcare). Anti-latent myostatin antibody and analytes were prepared in ACES pH7.4 (20 mM ACES, 150 mM NaCl, 1.2 mM CaCl₂), 0.05% TWEEN® 20, 0.005% NaN₃). […] Then human, cyno, or mouse latent myostatin was injected at 3.125 to 50 nM prepared by two-fold serial dilution, followed by dissociation. The sensor surface was regenerated with 25 mM NaOH. Kinetic parameters were determined by processing and fitting the data to a 1:1 binding model using BIACORE® T200 Evaluation software, version 2.0 (GE Healthcare).

[4] = biological target: T4, Cynomolgus monkey latent myostatin (cynomolgus monkey, UniProt Q95J86 25-266; Q95J86 267-375); experiment: as above
T4 construct: signal 1-24; also called Cyno latent myostatin
T4 sequence 1: T3 sequence 1 with V52A
T4 sequence 2: T1 sequence
Description: as §1

[5] = biological target: T5, Mouse latent myostatin (mouse, UniProt O08689 26-267; O08689 268-376); experiment: as above
T5 construct: signal 1-24
T5 sequence 1: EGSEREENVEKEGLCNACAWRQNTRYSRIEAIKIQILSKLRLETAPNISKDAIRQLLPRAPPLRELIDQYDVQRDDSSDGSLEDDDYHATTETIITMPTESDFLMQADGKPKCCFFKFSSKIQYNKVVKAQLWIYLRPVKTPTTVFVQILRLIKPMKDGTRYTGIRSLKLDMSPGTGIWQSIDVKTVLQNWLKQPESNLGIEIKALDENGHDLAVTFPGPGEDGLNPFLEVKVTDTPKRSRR
T5 sequence 2: T1 sequence
Description: as §1

[6] = biological target: T3, Human latent myostatin; experiment: SPR (BIACORE) as in Example 7; antigen not given, values equal those for human latent myostatin in Table 3
Description: as §1
Humanized antibodies were transiently expressed in FS293-F cells, and HEK Blue Assay and BIACORE® analysis were carried out as described above.

B1: MS_MST1032Ha-G1m/MST1032La-k0MC (antibody, human IgG1, kappa, V domains shown)
VH: QSLEESGGRLVTPGGSLTVTCRVSGIDLSSYDISWVRQAPGKGLEWIGIISYAGSTYYASWAKGRFTISKTSTTVDLKMTSLTTEDTATYFCARGVPAYSTGGDLWGPGTLVTVSS
VL: AQVLTQTASSVSAAVGGTVTINCQSSQSVYDNNWLSWFQQKPGQPPKLLIYWASTLASGVPSRFKGSGSGTQFTLTISDLECDDAATYYCAGGYGGGLYAFGGGTKVEIKR
notes: Chimeric antibody: rabbit variable regions, human G1m / k0MC constant regions; also called MST1032-G1m
- binding result [1]: no binding
- binding result [2]: no binding
- Kd [3]: 0.0766 nM
- koff [3]: 8.65e-05 s⁻¹
- kon [3]: 1.13e+06 M⁻¹ s⁻¹
- Kd [4]: 0.0717 nM
- koff [4]: 7.79e-05 s⁻¹
- kon [4]: 1.09e+06 M⁻¹ s⁻¹
- Kd [5]: 0.0579 nM
- koff [5]: 8.16e-05 s⁻¹
- kon [5]: 1.41e+06 M⁻¹ s⁻¹
- Kd [6]: 0.0766 nM
- koff [6]: 8.65e-05 s⁻¹
- kon [6]: 1.13e+06 M⁻¹ s⁻¹
